For assay [1], the target named is cynomolgus PCSK-9 (cynomolgus). Description: MSD-SET, Fab with biotin-PCSK9 in solution, IgG on plate, pH 7.4.
For assay [2], the target named is human PCSK9 (PCSK9 antigen, SEQ ID NO. 53) (human). The description is as above.
Assay [3] shares this target. In words: flow cytometry, PCSK9 left on CHO-LDLR cells (anti-His-FITC) after premix with 10 nM control IgG. In general terms: A flow cytometer gives signals particle by particle.
Assay [4] shares this target. In words: cell-based or functional assay.
The target is the same in assay [5]. Description: flow cytometry, PCSK9 left on CHO-LDLR cells (anti-His-FITC) after premix with 1 nM control IgG.
Assay [6] has the same target. Description: flow cytometry, PCSK9 left on CHO-LDLR cells (anti-His-FITC) after premix with 1000 nM control IgG.
Assay [7] has the same target. Description: flow cytometry, PCSK9 left on CHO-LDLR cells (anti-His-FITC) after premix with 0.1 nM control IgG.
The target is the same in assay [8]. Description: flow cytometry, PCSK9 left on CHO-LDLR cells (anti-His-FITC) after premix with 100 nM control IgG.
In assay [9] the target is cynomolgus PCSK-9 (cynomolgus). In words: BLI (ForteBio), IgG on AHQ sensor, 100 nM antigen.
Another assay has as its target murine PCSK-9 (murine) (UniProt Q80W65). In words: MSD-SET, Fab with biotin-PCSK9 in solution, IgG on plate, pH 7.4.
In assay [10] the target is human PCSK9 (PCSK9 antigen, SEQ ID NO. 53) (human). In words: MSD-SET, Fab with biotin-PCSK9 in solution, IgG on plate, pH 6.0.

What is called Kd is the concentration at which binding is half-saturated. A lower Kd goes with a tighter complex. As for Evolocumab Fab, the Kd came out at 0.0082 nM in assay [1] and 0.016 nM in assay [2].
IgG (negative control) (antibody) registered a Fluorescence Signal Value in assay [3] of 6960. Moreover, in assay [4], the BODIPY-LDL uptake by HepG2 cells, fluorescence, 4.2 nM, replicate 1 was determined as 0.358; the BODIPY-LDL uptake by HepG2 cells, fluorescence, 4.2 nM, replicate 2 came out at 0.325; the BODIPY-LDL uptake by HepG2 cells, fluorescence, 16.8 nM, replicate 1 was found to be 0.297; the BODIPY-LDL uptake by HepG2 cells, fluorescence, 16.8 nM, replicate 2 stood at 0.309. In assay [4], this substance gave a BODIPY-LDL uptake by HepG2 cells, fluorescence, 66.7 nM, replicate 1 of 0.329 and a BODIPY-LDL uptake by HepG2 cells, fluorescence, 66.7 nM, replicate 2 of 0.288. In assay [5], this substance had a Fluorescence Signal Value of 6730. The substance further yielded a Fluorescence Signal Value in assay [6] of 8920. The substance further had a Fluorescence Signal Value in assay [7] of 7000. In addition, in assay [8], the Fluorescence Signal Value was determined as 7520.
Bococizumab (antibody) yielded a dissociation constant Kd in assay [9] of 0.476 nM.
Take Alirocumab Fab: the Kd was determined as 0.082 nM in [1], 0.072 nM in assay [2], 0.3 nM with murine PCSK-9 (murine) and 0.051 nM in [10].
In the case of Evolocumab (antibody), the dissociation constant (Kd) in assay [9] was 1.3 nM.
On the same count and under the same terms, with Alirocumab (antibody) the figure was 0.383 nM.

For the origin of these results see patent publication US20200087416A1.
